Test results reported in the nanobody polyreactivity screen of Harvey et al. (2022).

Test: yeast display, Sf9 membrane polyspecificity reagent, FACS + sequencing; frameworks hold sequencing errors
Outline: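 Nanobodies from a synthetic yeast display library (Saccharomyces cerevisiae BJ5465), induced 36–48 hours with galactose, were stained 1 hour at 4 °C with 10% biotinylated, detergent-solubilized Sf9 membrane reagent, enriched on streptavidin microbeads, then FACS-sorted. Anti-HA (expression) and streptavidin (reagent binding) fluorescence set low and high (top ~1%) gates. Polyreactivity labels come from the gate of origin. Genes were colony-PCR amplified, MiSeq 2 × 250 sequenced and filtered by CDR length.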

Sequence | polyreactivity (PSR sort gate)
QVQLVESGGGLVQAGGSLRLSCAASGRTFLRYAMGWYRQAPGKERELVAAISWSGGRTYYADSVKGRFTISRDNAKNTVYLQMNSLKPEDTAVYYCNKVVLYGAHYYYWGQGTQVTVSS | high polyreactivity
QVQLVESGGGLVQAGGSLRLSCAASGRTFLTYVMGRYRQAPGKERELVAAITRGGRTNYADSVKGRFTISRDNAKNTVYLQMNSLKPEDTAVYYCARDDTPRYDYWGQGTQVTVSS | low polyreactivity
QVQLVESGGGLVQAGGSLRLSCAASGRTFLVNAMGWYRQAPGKERELVAAISSVGSTNYADSVKGRFTISRDNAKNTVYLQMNSLKPEVTSVYYCAKDAEYDCGQGTQVTVSS | low polyreactivity
QVQLVESGGGLVQAGGSLRLSCAASGRTFLWNAMGWYRQAPGKERELVAAITSGGRTTYADSVKGRFTISRDNAKNTVYLQMNSLKPEDTAVYYCAAVSANQDFDYWGQGTQVTVSS | high polyreactivity
QVQLVESGGGLVQAGGSLRLSCAASGRTFLYNAMGWYRQAPGKERELVAAISWSGGSTYYADSVKGRFTISRDNAKNTVYLQMNSLKPEDTAVYYCAATGRRSGFYYWGQGTQVTVSS | high polyreactivity
QVQLVESGGGLVQAGGSLRLSCAASGRTFLYVMGWNIQAPGKERELVAASSRGGSTSYADSVKGRFTISRDNAKNTVYLQMNSMKPEVTAVYYCAATNYWRDGYWGQGTQVTVSS | high polyreactivity
QVQLVESGGGLVQAGGSLRLSCAASGRTFLYYAMGWYRQAPGKERELVAAIDWSDDSTYYADSVKGRFTISRDNAKNTVYLQMNSLKPEDTAVYYCATDGLYLSWQYSWEELYYWGQGTQVTVSS | high polyreactivity
QVQLVESGGGLVQAGGSLRLSCAASGRTFLYYAMGWYRQAPGKERELVAAIRRGSSTYYADSVKGRFTISRDNAKNTVYLQMNSLKPEDTAVYYCAARGRYRIGPGRYGKRYDYWGQGTQVTVSS | high polyreactivity
QVQLVESGGGLVQAGGSLRLSCAASGRTFLYYAMGWYRQEPGKERELVAAITGRGGSTYNADSVKGLFTISRDNAQNTVYLKMNILKPEDTAVYYCAARDNWIRRDGYWGQGTQVTVSS | high polyreactivity
QVQLVESGGGLVQAGGSLRLSCAASGRTFLYYAMGWYRQSPGKERELVAAINRSGRTYYADSVKGRFTISRDNAKNTVYLQMNSLKPEDTAVYYCAADTRYPYRAYDYWGQGTQVTVSS | high polyreactivity
QVQLVESGGGLVQAGGSLRLSCAASGRTFLYYTMGWYRQAPGKERELVAAITSGTSTNYADSVKGRFTIARDNAKNTVYLQMNSQKPEDTAVYYCNKRAARSLNGYPLYGYYSWGQGTQVTVSS | low polyreactivity
QVQLVESGGGLVQAGGSLRLSCAASGRTFNAYAMGWYRQAPGKERELVAAISSGGSTYYADSVKGRFTISRDNAKYTVYLQMNSLKPEDTAVYYCNKVYGWRQFDYWGQGTQVTVSS | high polyreactivity
QVQLVESGGGLVQAGGSLRLSCAASGRTFNGYAMGWYRQAPGKERELVASITLRGGSTYYADSVKGRFTISRDNAKNTVYLQMNSLKPEDTAVYYCAVGKFVRYPGRWRYRYDYWGQGTQVTVSS | high polyreactivity
QVQLVESGGGLVQAGGSLRLSCAASGRTFNINALGWYRQAPGKERELVAAITWTGGGNTYYADSVKGRFTISRDNAKNTVYLQMNSLKPEDTAVYYCNADGRNYFYEGFWEGNYWGQGTQVTVSS | low polyreactivity
QVQLVESGGGLVQAGGSLRLSCAASGRTFNIYAMGWYRQAPGKERELVAAISSGGSTYYADSVKGRFTISRDNAKNTVYLQMNSLKPEDTAVYYCAAVEFELRGDYWGQGTQVTVSS | low polyreactivity
QVQLVESGGGLVQAGGSLRLSCAASGRTFNKYAMGWYRQAPGKERELVAAITGSGGSTYYADSVKGRFTISRDNAKNTVYLEMNSLKPEDTAVYYCAAYAYGVWHSQDGGNYWGQGTQVTVSS | low polyreactivity
QVQLVESGGGLVQAGGSLRLSCAASGRTFNRNAMGWYRQAPGKERELVAAISWSGGRTYYADSVKGRFTISRDTAKNTVYLQMNSLKPEDTAVYYCAAPGKKYWGQGTQVTVSS | high polyreactivity
QVQLVESGGGLVQAGGSLRLSCAASGRTFNRYAMGWYRQAPGKERELVAAINSVGSTYYADSVKGRFTISRDNAKNTVYLQMNSLKPEDTAVYYCNAVQGSRFGYWGQGTQVTVSS | high polyreactivity
QVQLVESGGGLVQAGGSLRLSCAASGRTFNSNAMGWYRQAPGKERELVAAITRSGGSTYYADSVKGRFTISRDNAKNTVYLQMNSLKPEDTAVYYCNKTRWTQRTSFDYWGQGTQVTVSS | low polyreactivity
QVQLVESGGGLVQAGGSLRLSCAASGRTFNWYAMGWYRQAPGKERELVAAIRVNGGITYYADSVKGRFTISRDNAKNTVYLQMISLKPEDTAVYYCAVYSRQGLGYWGQGTQVTVSS | high polyreactivity
QVQLVESGGGLVQAGGSLRLSCAASGRTFNYNAMGWYRQAPGKERELVAAINYNGGSTYYADSVKGRFTISRDNAKNTVYVQMNSLKPEDTAVYYCAADYNEYDWGQGTQVTVSS | low polyreactivity
QVQLVESGGGLVQAGGSLRLSCAASGRTFNYYAMGWYRQAPGKERELVAAISWSGTPTYYADSVKGRFTISRDHAKNTVYLQMNSLKPEDTAVYYCAAYLVSYPRGNYIRYDYWGQGTQVTVSS | low polyreactivity

Sequence | polyreactivity (PSR sort gate)
QVQLVESGGGLVQAGGSLRLSCAASGRTFNYYAMGWYRQAPGKERESVAAISWRGGSTYYADSVKGRFTISRDNAKNTVYLQMNSLKPEDTAVYYCNKYFSWRPYSYYYWGQGTQVTVSS | high polyreactivity
QVQLVESGGGLVQAGGSLRLSCAASGRTFNYYPMGWYRQAPGKERELVAAISRSGTPTYYADSVKGRFTISRDNAKNTVYLQMNSLKPEDTAVYYCAAYLVSYPRGNYIRYDYWGQGTQVTVSS | low polyreactivity
QVQLVESGGGLVQAGGSLRLSCAASGRTFNYYTMGWNRQAPGKEREFVAAITISGARTYYADSVKGRFTISRDNAKNTVYLQMNSLKPEDTAVYYCAARRRYRSRVTPVGYNYWGQGTQVTVSS | high polyreactivity
QVQLVESGGGLVQAGGSLRLSCAASGRTFPENAKGWYTQAPGKEREFVAVISSGGGSTTYADSVKGRFTISRDNAKNTVYLQMNSLKPEDTAVYYCATEYYFHGYWITYSWGQGTQVTVSS | low polyreactivity
QVQLVESGGGLVQAGGSLRLSCAASGRTFPENTMGWYRQAPAKERELVAAISSTTSTNYADSVKGRFTISRDNAKNTVYLQMNSLKPEDTAVYFWADDFWEYDGPWYANDYESWGLGTQVTVSS | low polyreactivity
QVQLVESGGGLVQAGGSLRLSCAASGRTFPFYAMGWYRPAPGTERELVASIRGGGGTNYADSVKGRFTISRDNAKNTVYLQMNSLKPEDTAVYYCAARGYGYRGYYYWGQGTQVTVSS | high polyreactivity
QVQLVESGGGLVQAGGSLRLSCAASGRTFPGNAMGWYRQAPGKERELVAAISYSGGRTYYSDSVKGRFTISRDNAKNTVYLQMNRLKPEDTAVYYCAKSIVQPSVAAYYYWGQGTQVTVSS | high polyreactivity
QVQLVESGGGLVQAGGSLRLSCAASGRTFPGNAMGWYRQAPGKERELVAAITRVGSTYYADSVKGRFTISRDNAKNTVYLQMNSLKPEDTAVYYCAADRLEGYYEDDATGFDYWRQGTQVTVSS | low polyreactivity
QVQLVESGGGLVQAGGSLRLSCAASGRTFPGYGMGWYRQAPGKERELVAVITSNGGITYYADSVKGRFTISRDNAKNTVYLQMNSLKPEDTAVYYCAAYEIYYEFDSWGQGTQVTVSS | low polyreactivity
QVQLVESGGGLVQAGGSLRLSCAASGRTFPLNAMGWYRQAPGKERELVAAITWSGGRTYYADSVKGRFTISRDNAKNTVYLQMNSLKPEDTAVYYCATDRYAYKLYDYWGQGTQVTVSS | low polyreactivity
QVQLVESGGGLVQAGGSLRLSCAASGRTFPLYGMGWYRQAPGKERELVATISRSGGSTYYADSVKGRFTISRDNAKNTVYLQMNSLKPEDTAVYYCIADRHYVPYYSRPRYIPYDYWGQGTQVTVSS | high polyreactivity
QVQLVESGGGLVQAGGSLRLSCAASGRTFPNYAMGWYRQAPGKERELVAAISYSGGTTYYADSVKGRFTISRDNAKNTVYLQMNSLKPEDTAVYDCNALRLGYGLFHYDYWGQGTQVTVSS | low polyreactivity
QVQLVESGGGLVQAGGSLRLSCAASGRTFPPTAMGGYRLAPGKEWELVAAISPSGASTYYADSVKGRFTISRDNAKNTVYLQMNSLKPEDTAVYYCAARRFIASPRYKYDYWGQGTQVTVSS | high polyreactivity
QVQLVESGGGLVQAGGSLRLSCAASGRTFPPYAMGWYRQAPGKERELVAAISGSGASTYYADSVKGRFTISRDNAKNTVYLQMNSLKPEDTAVYYCARYRGYWGRYYGVDYGYWGQGTQVTVSS | high polyreactivity
QVQLVESGGGLVQAGGSLRLSCAASGRTFPRNGMGWYRQAPGKERELGAGISSAGSTNYADSVKGRFTISRDNAKNTFYLHMNSLKPEDTAVYYCNAVLRRRWVTFYYWGQGTQVTVSS | high polyreactivity
QVQLVESGGGLVQAGGSLRLSCAASGRTFPRYAMGWYRQATGKERELVAAISVRAGITYYADSVKGRFTISRDNAKNTVYLQMNSLKPEDTAVYYCAKDHWTTSYDEGDYWGQGTQVTVSS | low polyreactivity
QVQLVESGGGLVQAGGSLRLSCAASGRTFPRYTMGWYRQAPGKERELVAASATGGSTYYADSVKGRFTISRDNAKNTVYLQMNSLKPEDTAVYYCAARPYSNRYVLGVYYWGQGTQVTVSS | high polyreactivity
QVQLVESGGGLVQAGGSLRLSCAASGRTFPSNAMGWYRQAPGKEREFVASITYSGGRTYYADSVKGRFTISRDNAKNTVYLQMNSLKPEDTAVYYCATARYRYHYYSWGQGTQVTVSS | high polyreactivity
QVQLVESGGGLVQAGGSLRLSCAASGRTFPVYAMGWYRQAPGKERELVASITGRGGSTYYADSVKGRFTISRDNAKNTVYLQMNSLKPEDTAVYYCARDWYKTYTGYYWGQGTQVTVSS | high polyreactivity
QVQLVESGGGLVQAGGSLRLSCAASGRTFPWYAMGWYRQAPGKERELVAAITYSVGSTYYADSVKGRFTISRDNAKNTVYLQMNSLKPEDTAVYYCAADSYPYRYRGKYSRLDYWGQGTQVTVSS | low polyreactivity
QVQLVESGGGLVQAGGSLRLSCAASGRTFPYNAMGWYRQAPGKERELVAAISSGGTTNYADSVKGRFTISRDNAKNTVYLQMNSLKPEDTAVYYCAADSVDSSQFRRDYWGQGTQVTVSS | low polyreactivity
